Sequences and labels used below:
B1: LINE1-full (parent)
chain: UACGUAGGUGGUUUUCCCCUGAUAGUGCUAAGGGGGCCUGGAAGUUUGGACUGGGCAGAGCUCAACACAGCGUGGCAAAGUGGCUGUGGCUAGACUGCCUCUCUGGAUUCCUCGUCACUCAGCAGGGCAUCUCUGAGAGAAAUGCC

The variants in this series derive from B1. The series is described as follows: self-cleavage, relative activity (ratio to wild type); higher = more cleavage; in vitro, sequencing; the parent is a self-cleaving ribozyme.
UACGUAGGUGGUUUUCCCCUGAUAGUGCUAAGGGGGCCUGGAAGUUUGGACUGGGCAGAGCUCAACACAGCGUGGCAAAGUGGCUGUGGCUAGACUGCCUCUCUGGAUUCCUCGUCACUUAGCAGGGCAUCUCUGAGAGAUAUGCC [C120U A141U]: the self-cleavage came to 0.95.

In the case of UACGUAGGUGGUUUUCCCCUGAUAGUGCUAAGGGGGCCUGGAAGUUUGGACUGGGCAGAGCUCAACACAGCGUGGCAAAGUGGCUGUGGCUAGACUGCCUCUCUGGAUUCCUCGUCACUUAGCAGGGCAUCUCUGGGAGAAAUGCC [C120U A136G], the self-cleavage was 1.39.

Consider UACGUAGGUGGUUUUCCCCUGAUAGUGCUAAGGGGGCCUGGAAGUUUGGACUGGGCAGAGCUCAACACAGCGUGGCAAAGUGGCUGUGGCUAGACUGCCUCUCUGGAUUCCUCGUCACUCCGCAGGGCAUCUCUGAGAGAAACGCC [A121C U143C], for which the self-cleavage was 1.99.

On to UACGUAGGUGGUUUUCCCCUGAUAGUGCUAAGGGGGCCUGGAAGUUUGGACUGGGCAGAGCUCAACACAGCGUGGCAAAGUGGCUGUGGCUAGACUGCCUCUCUGGAUUCCUCGUCACUUAGCAGGGCAACUCUGAGAGAAAUGCC [C120U U130A], for which the self-cleavage worked out at 1.58.

With UACGUAGGUGGUUUUCCCCUGAUAGUGCUAAGGGGGCCUGGAAGUUUGGACUGGGCAGAGCUCAACACAGCGUGGCAAAGUGGCUGUGGCUAGACUGCCUCUCUGGAUUCCUCGUCACGCAGCAGGGCAUCUCUGAGAGAAAUGCU [U119G C146U], the self-cleavage is 1.86.

Take UACGUAGGUGGUUUUCCCCUGAUAGUGCUAAGGGGGCCUGGAAGUUUGGACUGGGCAGAGCUCAACACAGCGUGGCAAAGUGGCUGUGGCUAGACUGCCUCUCUGGAUUCCUCGUCACUUAGCAGGGCAUCUCCGAGAGAAAUGCC [C120U U134C]: the self-cleavage is 1.27.

Take UACGUAGGUGGUUUUCCCCUGAUAGUGCUAAGGGGGCCUGGAAGUUUGGACUGGGCAGAGCUCAACACAGCGUGGCAAAGUGGCUGUGGCUAGACUGCCUCUCUGGAUUCCUCGUCACGCAGCAGGGCAUCUCUGAGAGGAAUGCC [U119G A140G]: the self-cleavage was found to be 2.22.

Consider UACGUAGGUGGUUUUCCCCUGAUAGUGCUAAGGGGGCCUGGAAGUUUGGACUGGGCAGAGCUCAACACAGCGUGGCAAAGUGGCUGUGGCUAGACUGCCUCUCUGGAUUCCUCGUCACUUAGCAGAGCAUCUCUGAGAGAAAUGCC [C120U G126A], for which the self-cleavage came out at 2.01.

In the case of UACGUAGGUGGUUUUCCCCUGAUAGUGCUAAGGGGGCCUGGAAGUUUGGACUGGGCAGAGCUCAACACAGCGUGGCAAAGUGGCUGUGGCUAGACUGCCUCUCUGGAUUCCUCGUCACCCAGCAGGGCAUCUCUGAGAGAAAAGCC [U119C U143A], the self-cleavage came out at 1.94.

In the case of UACGUAGGUGGUUUUCCCCUGAUAGUGCUAAGGGGGCCUGGAAGUUUGGACUGGGCAGAGCUCAACACAGCGUGGCAAAGUGGCUGUGGCUAGACUGCCUCUCUGGAUUCCUCGUCACCCACCAGGGCAUCUCUGAGAGAAAUGCC [U119C G122C], the self-cleavage was 2.

As to UACGUAGGUGGUUUUCCCCUGAUAGUGCUAAGGGGGCCUGGAAGUUUGGACUGGGCAGAGCUCAACACAGCGUGGCAAAGUGGCUGUGGCUAGACUGCCUCUCUGGAUUCCUCGUCACCCAUCAGGGCAUCUCUGAGAGAAAUGCC [U119C G122U], the self-cleavage worked out at 2.35.

Turning to UACGUAGGUGGUUUUCCCCUGAUAGUGCUAAGGGGGCCUGGAAGUUUGGACUGGGCAGAGCUCAACACAGCGUGGCAAAGUGGCUGUGGCUAGACUGCCUCUCUGGAUUCCUCGUCACUUAGCAGGGCCUCUCUGAGAGAAAUGCC [C120U A129C], the self-cleavage is 0.82.

With UACGUAGGUGGUUUUCCCCUGAUAGUGCUAAGGGGGCCUGGAAGUUUGGACUGGGCAGAGCUCAACACAGCGUGGCAAAGUGGCUGUGGCUAGACUGCCUCUCUGGAUUCCUCGUCACGCAGCAGGGCGUCUCUGAGAGAAAUGCC [U119G A129G], the self-cleavage stood at 1.15.

In the case of UACGUAGGUGGUUUUCCCCUGAUAGUGCUAAGGGGGCCUGGAAGUUUGGACUGGGCAGAGCUCAACACAGCGUGGCAAAGUGGCUGUGGCUAGACUGCCUCUCUGGAUUCCUCGUCACUUAGCAGGGCAUCCCUGAGAGAAAUGCC [C120U U132C], the self-cleavage is 1.56.

On to UACGUAGGUGGUUUUCCCCUGAUAGUGCUAAGGGGGCCUGGAAGUUUGGACUGGGCAGAGCUCAACACAGCGUGGCAAAGUGGCUGUGGCUAGACUGCCUCUCUGGAUUCCUCGUCACUCCGCAGGGCAUCUCUGAGAGAAGUGCC [A121C A142G], for which the self-cleavage was determined as 1.1.

As to UACGUAGGUGGUUUUCCCCUGAUAGUGCUAAGGGGGCCUGGAAGUUUGGACUGGGCAGAGCUCAACACAGCGUGGCAAAGUGGCUGUGGCUAGACUGCCUCUCUGGAUUCCUCGUCACUCGGCUGGGCAUCUCUGAGAGAAAUGCC [A121G A124U], the self-cleavage came out at 1.62.

Take UACGUAGGUGGUUUUCCCCUGAUAGUGCUAAGGGGGCCUGGAAGUUUGGACUGGGCAGAGCUCAACACAGCGUGGCAAAGUGGCUGUGGCUAGACUGCCUCUCUGGAUUCCUCGUCACUCGGCCGGGCAUCUCUGAGAGAAAUGCC [A121G A124C]: the self-cleavage amounted to 0.32.

With UACGUAGGUGGUUUUCCCCUGAUAGUGCUAAGGGGGCCUGGAAGUUUGGACUGGGCAGAGCUCAACACAGCGUGGCAAAGUGGCUGUGGCUAGACUGCCUCUCUGGAUUCCUCGUCACGCAGCAGGGCAUCUCUGAGAGAAAUGCC [U119G], the self-cleavage turned out to be 1.63.

Consider UACGUAGGUGGUUUUCCCCUGAUAGUGCUAAGGGGGCCUGGAAGUUUGGACUGGGCAGAGCUCAACACAGCGUGGCAAAGUGGCUGUGGCUAGACUGCCUCUCUGGAUUCCUCGUCACUAAUCAGGGCAUCUCUGAGAGAAAUGCC [C120A G122U], for which the self-cleavage came out at 2.31.

On to UACGUAGGUGGUUUUCCCCUGAUAGUGCUAAGGGGGCCUGGAAGUUUGGACUGGGCAGAGCUCAACACAGCGUGGCAAAGUGGCUGUGGCUAGACUGCCUCUCUGGAUUCCUCGUCACCCAGCAGGGCAUCUCUGAGAUAAAUGCC [U119C G139U], for which the self-cleavage is 1.47.

With UACGUAGGUGGUUUUCCCCUGAUAGUGCUAAGGGGGCCUGGAAGUUUGGACUGGGCAGAGCUCAACACAGCGUGGCAAAGUGGCUGUGGCUAGACUGCCUCUCUGGAUUCCUCGUCACUAAGCAGGGCGUCUCUGAGAGAAAUGCC [C120A A129G], the self-cleavage amounted to 1.29.

UACGUAGGUGGUUUUCCCCUGAUAGUGCUAAGGGGGCCUGGAAGUUUGGACUGGGCAGAGCUCAACACAGCGUGGCAAAGUGGCUGUGGCUAGACUGCCUCUCUGGAUUCCUCGUCACUCCGCAGGGCAUCUCUGAGAGAGAUGCC [A121C A141G]: the self-cleavage amounted to 1.99.

In the case of UACGUAGGUGGUUUUCCCCUGAUAGUGCUAAGGGGGCCUGGAAGUUUGGACUGGGCAGAGCUCAACACAGCGUGGCAAAGUGGCUGUGGCUAGACUGCCUCUCUGGAUUCCUCGUCACCCAGCAGGGCAUCGCUGAGAGAAAUGCC [U119C U132G], the self-cleavage was 2.83.

Turning to UACGUAGGUGGUUUUCCCCUGAUAGUGCUAAGGGGGCCUGGAAGUUUGGACUGGGCAGAGCUCAACACAGCGUGGCAAAGUGGCUGUGGCUAGACUGCCUCUCUGGAUUCCUCGUCACCCAGCAGGGCAUCCCUGAGAGAAAUGCC [U119C U132C], the self-cleavage came to 2.32.

As to UACGUAGGUGGUUUUCCCCUGAUAGUGCUAAGGGGGCCUGGAAGUUUGGACUGGGCAGAGCUCAACACAGCGUGGCAAAGUGGCUGUGGCUAGACUGCCUCUCUGGAUUCCUCGUCACUUAGCAGGGCAUCUCUGAGAGGAAUGCC [C120U A140G], the self-cleavage amounted to 1.1.

As for UACGUAGGUGGUUUUCCCCUGAUAGUGCUAAGGGGGCCUGGAAGUUUGGACUGGGCAGAGCUCAACACAGCGUGGCAAAGUGGCUGUGGCUAGACUGCCUCUCUGGAUUCCUCGUCACUCGGCAGGGCAUCUCUGUGAGAAAUGCC [A121G A136U], the self-cleavage is 1.97.

As for UACGUAGGUGGUUUUCCCCUGAUAGUGCUAAGGGGGCCUGGAAGUUUGGACUGGGCAGAGCUCAACACAGCGUGGCAAAGUGGCUGUGGCUAGACUGCCUCUCUGGAUUCCUCGUCACUCCGCAGGGCAUCUCUGAGGGAAAUGCC [A121C A138G], the self-cleavage is 2.34.

For UACGUAGGUGGUUUUCCCCUGAUAGUGCUAAGGGGGCCUGGAAGUUUGGACUGGGCAGAGCUCAACACAGCGUGGCAAAGUGGCUGUGGCUAGACUGCCUCUCUGGAUUCCUCGUCACUUGGCAGGGCAUCUCUGAGAGAAAUGCC [C120U A121G], the self-cleavage was determined as 0.

Consider UACGUAGGUGGUUUUCCCCUGAUAGUGCUAAGGGGGCCUGGAAGUUUGGACUGGGCAGAGCUCAACACAGCGUGGCAAAGUGGCUGUGGCUAGACUGCCUCUCUGGAUUCCUCGUCACUCCGCAGGUCAUCUCUGAGAGAAAUGCC [A121C G127U], for which the self-cleavage is 1.44.

UACGUAGGUGGUUUUCCCCUGAUAGUGCUAAGGGGGCCUGGAAGUUUGGACUGGGCAGAGCUCAACACAGCGUGGCAAAGUGGCUGUGGCUAGACUGCCUCUCUGGAUUCCUCGUCACUUAGCAGGGCAUCUCUGAGAGAAAUGCC [C120U]: the self-cleavage came out at 1.37.

Turning to UACGUAGGUGGUUUUCCCCUGAUAGUGCUAAGGGGGCCUGGAAGUUUGGACUGGGCAGAGCUCAACACAGCGUGGCAAAGUGGCUGUGGCUAGACUGCCUCUCUGGAUUCCUCGUCACUAAGCAGGGCAUCUCUGAGAGAAAUGCC [C120A], the self-cleavage turned out to be 1.41.

Turning to UACGUAGGUGGUUUUCCCCUGAUAGUGCUAAGGGGGCCUGGAAGUUUGGACUGGGCAGAGCUCAACACAGCGUGGCAAAGUGGCUGUGGCUAGACUGCCUCUCUGGAUUCCUCGUCACUAGGCAGGGCAUCUCUGAGAGAAAUGCC [C120A A121G], the self-cleavage was 1.39.

Turning to UACGUAGGUGGUUUUCCCCUGAUAGUGCUAAGGGGGCCUGGAAGUUUGGACUGGGCAGAGCUCAACACAGCGUGGCAAAGUGGCUGUGGCUAGACUGCCUCUCUGGAUUCCUCGUCACUAUGCAGGGCAUCUCUGAGAGAAAUGCC [C120A A121U], the self-cleavage was determined as 0.93.

For UACGUAGGUGGUUUUCCCCUGAUAGUGCUAAGGGGGCCUGGAAGUUUGGACUGGGCAGAGCUCAACACAGCGUGGCAAAGUGGCUGUGGCUAGACUGCCUCUCUGGAUUCCUCGUCACCCAGCAGGGCAUCUCGGAGAGAAAUGCC [U119C U134G], the self-cleavage is 1.58.

Consider UACGUAGGUGGUUUUCCCCUGAUAGUGCUAAGGGGGCCUGGAAGUUUGGACUGGGCAGAGCUCAACACAGCGUGGCAAAGUGGCUGUGGCUAGACUGCCUCUCUGGAUUCCUCGUCACCCAGCAGGGCAUCUCCGAGAGAAAUGCC [U119C U134C], for which the self-cleavage came to 2.11.

Take UACGUAGGUGGUUUUCCCCUGAUAGUGCUAAGGGGGCCUGGAAGUUUGGACUGGGCAGAGCUCAACACAGCGUGGCAAAGUGGCUGUGGCUAGACUGCCUCUCUGGAUUCCUCGUCACCCAGUAGGGCAUCUCUGAGAGAAAUGCC [U119C C123U]: the self-cleavage was found to be 0.62.

Turning to UACGUAGGUGGUUUUCCCCUGAUAGUGCUAAGGGGGCCUGGAAGUUUGGACUGGGCAGAGCUCAACACAGCGUGGCAAAGUGGCUGUGGCUAGACUGCCUCUCUGGAUUCCUCGUCACCCAGCAGUGCAUCUCUGAGAGAAAUGCC [U119C G126U], the self-cleavage was found to be 1.67.

Take UACGUAGGUGGUUUUCCCCUGAUAGUGCUAAGGGGGCCUGGAAGUUUGGACUGGGCAGAGCUCAACACAGCGUGGCAAAGUGGCUGUGGCUAGACUGCCUCUCUGGAUUCCUCGUCACGCAGCAGGGCAUCUCUGGGAGAAAUGCC [U119G A136G]: the self-cleavage was 0.94.

Consider UACGUAGGUGGUUUUCCCCUGAUAGUGCUAAGGGGGCCUGGAAGUUUGGACUGGGCAGAGCUCAACACAGCGUGGCAAAGUGGCUGUGGCUAGACUGCCUCUCUGGAUUCCUCGUCACUAAGCAGGGCAUCUCUGAGAGGAAUGCC [C120A A140G], for which the self-cleavage is 1.32.

The values are drawn from the RNAGym collection of RNA variant scans (doi:10.7554/elife.90254).
